Five molecules from patent US20110105394A1 (Novo Nordisk, published 2011) can be followed below.

*1 amine or outer side, *2 acyl side, *3 side chain or, on linkers, in order; H or OH if unused. Bridges are numbered along the chain shown (N, C = ends). The star is where a group is joined. C20 diacid = O=C(O)CCCCCCCCCCCCCCCCCCC(=O)*; γGlu = O=C(O)[C@H](CCC(=O)[*:2])N[*:1]; AEEA = NCCOCCOCC(=O)O

The target in the assay is T1, Amylin 3(a) receptor (human calcitonin receptor (CTa) with RAMP-3) (human, UniProt P30988 25-474; O60896 24-148, limits assumed).
T1 sequence (looked up) 1: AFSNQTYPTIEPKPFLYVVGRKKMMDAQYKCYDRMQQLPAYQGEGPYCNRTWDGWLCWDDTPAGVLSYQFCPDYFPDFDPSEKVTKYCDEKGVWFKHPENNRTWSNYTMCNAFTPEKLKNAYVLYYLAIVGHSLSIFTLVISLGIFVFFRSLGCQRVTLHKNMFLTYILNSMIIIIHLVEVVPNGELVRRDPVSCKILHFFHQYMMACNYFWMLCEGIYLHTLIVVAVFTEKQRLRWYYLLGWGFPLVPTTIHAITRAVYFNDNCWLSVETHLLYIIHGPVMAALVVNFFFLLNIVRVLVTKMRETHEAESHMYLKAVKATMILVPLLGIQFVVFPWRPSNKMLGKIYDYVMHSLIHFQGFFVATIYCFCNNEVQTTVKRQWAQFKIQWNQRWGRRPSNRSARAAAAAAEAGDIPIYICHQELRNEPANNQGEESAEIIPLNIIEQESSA
T1 sequence (looked up) 2: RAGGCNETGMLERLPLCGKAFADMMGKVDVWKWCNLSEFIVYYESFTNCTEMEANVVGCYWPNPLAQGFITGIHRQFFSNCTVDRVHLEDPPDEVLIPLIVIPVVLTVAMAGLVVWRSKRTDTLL
Description: cell-based or functional assay.

B1: N-alpha-[2-(2-{2-[4-(S)-Carboxy-4-(19-carboxynonadecanoylamino)butyrylamino]ethoxy}ethoxy)acetyl]-His-His-[Arg1His17,Gln21]-pramlintide (peptide)
peptide: {C20 diacid-γGlu-AEEA}-HHRCNTATCATQRLANFLHHSSQNFGPILPPTNVGSNTY-NH2
modifications: disulfide 4-9
SMILES: CC[C@H](C)[C@H](NC(=O)[C@@H]1CCCN1C(=O)CNC(=O)[C@H](Cc1ccccc1)NC(=O)[C@H](CC(N)=O)NC(=O)[C@H](CCC(N)=O)NC(=O)[C@H](CO)NC(=O)[C@H](CO)NC(=O)[C@H](Cc1c[nH]cn1)NC(=O)[C@H](Cc1c[nH]cn1)NC(=O)[C@H](CC(C)C)NC(=O)[C@H](Cc1ccccc1)NC(=O)[C@H](CC(N)=O)NC(=O)[C@H](C)NC(=O)[C@H](CC(C)C)NC(=O)[C@H](CCCNC(=N)N)NC(=O)[C@H](CCC(N)=O)NC(=O)[C@@H](NC(=O)[C@H](C)NC(=O)[C@@H]1CSSC[C@H](NC(=O)[C@H](CCCNC(=N)N)NC(=O)[C@H](Cc2c[nH]cn2)NC(=O)[C@H](Cc2c[nH]cn2)NC(=O)COCCOCCNC(=O)CC[C@H](NC(=O)CCCCCCCCCCCCCCCCCCC(=O)O)C(=O)O)C(=O)N[C@@H](CC(N)=O)C(=O)N[C@@H]([C@@H](C)O)C(=O)N[C@@H](C)C(=O)N[C@@H]([C@@H](C)O)C(=O)N1)[C@@H](C)O)C(=O)N[C@@H](CC(C)C)C(=O)N1CCC[C@H]1C(=O)N1CCC[C@H]1C(=O)N[C@H](C(=O)N[C@@H](CC(N)=O)C(=O)N[C@H](C(=O)NCC(=O)N[C@@H](CO)C(=O)N[C@@H](CC(N)=O)C(=O)N[C@H](C(=O)N[C@@H](Cc1ccc(O)cc1)C(N)=O)[C@@H](C)O)C(C)C)[C@@H](C)O
Regarding B1, the “Potency Luciferase” value amounted to 0.06 nM.

B2: N-alpha-[(S)-4-Carboxy-4-(19-carboxynonadecanoylamino)butyryl]-[His17,Asp31]-pramlintide (2-37) (peptide)
peptide: {C20 diacid-γGlu}-CNTATCATQRLANFLHHSSNNFGPILPPTDVGSNTY-NH2
modifications: disulfide 1-6
SMILES: CC[C@H](C)[C@H](NC(=O)[C@@H]1CCCN1C(=O)CNC(=O)[C@H](Cc1ccccc1)NC(=O)[C@H](CC(N)=O)NC(=O)[C@H](CC(N)=O)NC(=O)[C@H](CO)NC(=O)[C@H](CO)NC(=O)[C@H](Cc1c[nH]cn1)NC(=O)[C@H](Cc1c[nH]cn1)NC(=O)[C@H](CC(C)C)NC(=O)[C@H](Cc1ccccc1)NC(=O)[C@H](CC(N)=O)NC(=O)[C@H](C)NC(=O)[C@H](CC(C)C)NC(=O)[C@H](CCCNC(=N)N)NC(=O)[C@H](CCC(N)=O)NC(=O)[C@@H](NC(=O)[C@H](C)NC(=O)[C@@H]1CSSC[C@H](NC(=O)CC[C@H](NC(=O)CCCCCCCCCCCCCCCCCCC(=O)O)C(=O)O)C(=O)N[C@@H](CC(N)=O)C(=O)N[C@@H]([C@@H](C)O)C(=O)N[C@@H](C)C(=O)N[C@@H]([C@@H](C)O)C(=O)N1)[C@@H](C)O)C(=O)N[C@@H](CC(C)C)C(=O)N1CCC[C@H]1C(=O)N1CCC[C@H]1C(=O)N[C@H](C(=O)N[C@@H](CC(=O)O)C(=O)N[C@H](C(=O)NCC(=O)N[C@@H](CO)C(=O)N[C@@H](CC(N)=O)C(=O)N[C@H](C(=O)N[C@@H](Cc1ccc(O)cc1)C(N)=O)[C@@H](C)O)C(C)C)[C@@H](C)O
Regarding B2, the “Potency Luciferase” value is 0.06 nM.

B3: N-alpha-[(S)-4-Carboxy-4-(19-carboxynonadecanoylamino)butyryl]-[Arg1,His17]-pramlintide (peptide)
peptide: {C20 diacid-γGlu}-RCNTATCATQRLANFLHHSSNNFGPILPPTNVGSNTY-NH2
modifications: disulfide 2-7
SMILES: CC[C@H](C)[C@H](NC(=O)[C@@H]1CCCN1C(=O)CNC(=O)[C@H](Cc1ccccc1)NC(=O)[C@H](CC(N)=O)NC(=O)[C@H](CC(N)=O)NC(=O)[C@H](CO)NC(=O)[C@H](CO)NC(=O)[C@H](Cc1c[nH]cn1)NC(=O)[C@H](Cc1c[nH]cn1)NC(=O)[C@H](CC(C)C)NC(=O)[C@H](Cc1ccccc1)NC(=O)[C@H](CC(N)=O)NC(=O)[C@H](C)NC(=O)[C@H](CC(C)C)NC(=O)[C@H](CCCNC(=N)N)NC(=O)[C@H](CCC(N)=O)NC(=O)[C@@H](NC(=O)[C@H](C)NC(=O)[C@@H]1CSSC[C@H](NC(=O)[C@H](CCCNC(=N)N)NC(=O)CC[C@H](NC(=O)CCCCCCCCCCCCCCCCCCC(=O)O)C(=O)O)C(=O)N[C@@H](CC(N)=O)C(=O)N[C@@H]([C@@H](C)O)C(=O)N[C@@H](C)C(=O)N[C@@H]([C@@H](C)O)C(=O)N1)[C@@H](C)O)C(=O)N[C@@H](CC(C)C)C(=O)N1CCC[C@H]1C(=O)N1CCC[C@H]1C(=O)N[C@H](C(=O)N[C@@H](CC(N)=O)C(=O)N[C@H](C(=O)NCC(=O)N[C@@H](CO)C(=O)N[C@@H](CC(N)=O)C(=O)N[C@H](C(=O)N[C@@H](Cc1ccc(O)cc1)C(N)=O)[C@@H](C)O)C(C)C)[C@@H](C)O
For the molecule B3, the “Potency Luciferase” value amounted to 0.3 nM.

B4: N-alpha-[2-(2-{2-[4-(S)-Carboxy-4-(19-carboxynonadecanoylamino)butyrylamino]ethoxy}ethoxy)acetyl]-His-His-[Arg1,Arg17]-pramlintide (peptide)
peptide: {C20 diacid-γGlu-AEEA}-HHRCNTATCATQRLANFLRHSSNNFGPILPPTNVGSNTY-NH2
modifications: disulfide 4-9
SMILES: CC[C@H](C)[C@H](NC(=O)[C@@H]1CCCN1C(=O)CNC(=O)[C@H](Cc1ccccc1)NC(=O)[C@H](CC(N)=O)NC(=O)[C@H](CC(N)=O)NC(=O)[C@H](CO)NC(=O)[C@H](CO)NC(=O)[C@H](Cc1c[nH]cn1)NC(=O)[C@H](CCCNC(=N)N)NC(=O)[C@H](CC(C)C)NC(=O)[C@H](Cc1ccccc1)NC(=O)[C@H](CC(N)=O)NC(=O)[C@H](C)NC(=O)[C@H](CC(C)C)NC(=O)[C@H](CCCNC(=N)N)NC(=O)[C@H](CCC(N)=O)NC(=O)[C@@H](NC(=O)[C@H](C)NC(=O)[C@@H]1CSSC[C@H](NC(=O)[C@H](CCCNC(=N)N)NC(=O)[C@H](Cc2c[nH]cn2)NC(=O)[C@H](Cc2c[nH]cn2)NC(=O)COCCOCCNC(=O)CC[C@H](NC(=O)CCCCCCCCCCCCCCCCCCC(=O)O)C(=O)O)C(=O)N[C@@H](CC(N)=O)C(=O)N[C@@H]([C@@H](C)O)C(=O)N[C@@H](C)C(=O)N[C@@H]([C@@H](C)O)C(=O)N1)[C@@H](C)O)C(=O)N[C@@H](CC(C)C)C(=O)N1CCC[C@H]1C(=O)N1CCC[C@H]1C(=O)N[C@H](C(=O)N[C@@H](CC(N)=O)C(=O)N[C@H](C(=O)NCC(=O)N[C@@H](CO)C(=O)N[C@@H](CC(N)=O)C(=O)N[C@H](C(=O)N[C@@H](Cc1ccc(O)cc1)C(N)=O)[C@@H](C)O)C(C)C)[C@@H](C)O
With B4, the “Potency Luciferase” value came to 0.3 nM.

B5: N-alpha-[2-(2-{2-[4-(S)-Carboxy-4-(19-carboxynonadecanoylamino)butyrylamino]ethoxy}ethoxy)acetyl]-His-His-[Arg1,His17]-pramlintide (peptide)
peptide: {C20 diacid-γGlu-AEEA}-HHRCNTATCATQRLANFLHHSSNNFGPILPPTNVGSNTY-NH2
modifications: disulfide 4-9
SMILES: CC[C@H](C)[C@H](NC(=O)[C@@H]1CCCN1C(=O)CNC(=O)[C@H](Cc1ccccc1)NC(=O)[C@H](CC(N)=O)NC(=O)[C@H](CC(N)=O)NC(=O)[C@H](CO)NC(=O)[C@H](CO)NC(=O)[C@H](Cc1c[nH]cn1)NC(=O)[C@H](Cc1c[nH]cn1)NC(=O)[C@H](CC(C)C)NC(=O)[C@H](Cc1ccccc1)NC(=O)[C@H](CC(N)=O)NC(=O)[C@H](C)NC(=O)[C@H](CC(C)C)NC(=O)[C@H](CCCNC(=N)N)NC(=O)[C@H](CCC(N)=O)NC(=O)[C@@H](NC(=O)[C@H](C)NC(=O)[C@@H]1CSSC[C@H](NC(=O)[C@H](CCCNC(=N)N)NC(=O)[C@H](Cc2c[nH]cn2)NC(=O)[C@H](Cc2c[nH]cn2)NC(=O)COCCOCCNC(=O)CC[C@H](NC(=O)CCCCCCCCCCCCCCCCCCC(=O)O)C(=O)O)C(=O)N[C@@H](CC(N)=O)C(=O)N[C@@H]([C@@H](C)O)C(=O)N[C@@H](C)C(=O)N[C@@H]([C@@H](C)O)C(=O)N1)[C@@H](C)O)C(=O)N[C@@H](CC(C)C)C(=O)N1CCC[C@H]1C(=O)N1CCC[C@H]1C(=O)N[C@H](C(=O)N[C@@H](CC(N)=O)C(=O)N[C@H](C(=O)NCC(=O)N[C@@H](CO)C(=O)N[C@@H](CC(N)=O)C(=O)N[C@H](C(=O)N[C@@H](Cc1ccc(O)cc1)C(N)=O)[C@@H](C)O)C(C)C)[C@@H](C)O
For B5, the “Potency Luciferase” value worked out at 0.09 nM.
